B1: high affinity PDL-1 molecule L1A4 (ligand)
chain: WTVTVPKDLYVVEYGSNMTIECKFPVEKQLDLAALQVFWMMEDKNIIQFVHGEEDLKVQHSSYRQRARLLKDQLSLGNAALQITDVKLQDAGVYTCLISYGGADYKRITVKVNAPYNKINQRILVVDPVTSEHELTCQAEGYPKAEVIWTSSDHQVLSGKTTTTNSKREEKLFNVTSTLRINTTTNEIFYCTFRRLDPEENHTAELVIPEL
B2: high affinity PDL-1 molecule L3B3b (ligand)
chain: FTVTVPKDLYVVEYGSNMTIECKFPVEKQLDLAALQVFWMMEDKNIVSFVHGEEDLKVQHSSYRQRARLLKDQLSLGNAALQITDVKLQDAGVYVCLIAYKGADYKRITVKVNAPYNKINQRILVVDPVTSEHELTCQAEGYPKAEVIWTSSDHQVLSGKTTTTNSKREEKLFNVTSTLRINTTTNEIFYCTFRRLDPEENHTAELVIPEL
B3: high affinity PDL-1 molecule L3C7 (ligand)
chain: FTVTVPKDLYVVEYGSNMTIECKFPVEKQLDLAALEVHWFMEDKNIIQFVHGEEDLKVQHSSYRQRARLLKDQLSLGNAALQITDVKLQDAGVYTCLIGYKGADYKRITVKVNAPYNKINQRILVVDPVTSEHELTCQAEGYPKAEVIWTSSDHQVLSGKTTTTNSKREEKLFNVTSTLRINTTTNEIFYCTFRRLDPEENHTAELVIPEL
B4: high affinity PDL-1 molecule L3B3d (ligand)
chain: WTVTVPKDLYVVEYGSNMTIECKFPVEKQLDLAALQVFWMMEDKNILSFVHGEEDLKVQHSSYRQRARLLKDQLSLGNAALQITDVKLQDAGVYVCLIAYKGADYKRITVKVNAPYNKINQRILVVDPVTSEHELTCQAEGYPKAEVIWTSSDHQVLSGKTTTTNSKREEKLFNVTSTLRINTTTNEIFYCTFRRLDPEENHTAELVIPEL
B5: high affinity PDL-1 molecule L3B3 (ligand)
chain: FTVTVPKDLYVVEYGSNMTIECKFPVEKQLDLAALQVFWMMEDKNIIQFVHGEEDLKVQHSSYRQRARLLKDQLSLGNAALQITDVKLQDAGVYTCLIAYKGADYKRITVKVNAPYNKINQRILVVDPVTSEHELTCQAEGYPKAEVIWTSSDHQVLSGKTTTTNSKREEKLFNVTSTLRINTTTNEIFYCTFRRLDPEENHTAELVIPEL
B6: high affinity PDL-1 molecule L2C4 (ligand)
chain: FTVTVPKDLYVVEYGSNMTIECKFPVEKQLDLAALQVHWWMEDKNIVSFVHGEEDLKVQHSSYRQRARLLKDQLSLGNAALQITDVKLQDAGVYRCMISYGGADYKRITVKVNAPYNKINQRILVVDPVTSEHELTCQAEGYPKAEVIWTSSDHQVLSGKTTTTNSKREEKLFNVTSTLRINTTTNEIFYCTFRRLDPEENHTAELVIPEL
B7: high affinity PDL-1 molecule L2A6 (ligand)
chain: FTVTVPKDLYVVEYGSNMTIECKFPVEKQLDLAALQVHWFMEDKNIASFVHGEEDLKVQHSSYRQRARLLKDQLSLGNAALQITDVKLQDAGVYRCMISYGGADYKRITVKVNAPYNKINQRIRVVDPVTSEHELTCQAEGYPKAEVIWTSSDHQVLSGKTTTTNSKREEKLFNVTSTLRINTTTNEIFYCTFRRLDPEENHTAELVIPEL
B8: high affinity PDL-1 molecule L1C2 (ligand)
chain: FTVTVPKDLYVVEYGSNMTIECKFPVEKQLDLAALQVNWFMEDKNIIQFVHGEEDLKVQHSSYRQRARLLKDQLSLGNAALQITDVKLQDAGVYVCLISYGGADYKRITVKVNAPYNKINQRILVVDPVTSEHELTCQAEGYPKAEVIWTSSDHQVLSGKTTTTNSKREEKLFNVTSTLRINTTTNEIFYCTFRRLDPEENHTAELVIPEL
B9: high affinity PDL-1 molecule L2D7 (ligand)
chain: FTVTVPKDLYVVEYGSNMTIECKFPVEKQLDLAALEVHWFMEDKNILSFVHGEEDLKVQHSSYRQRARLLKDQLSLGNAALQITDVKLQDAGVYRCMISYGGADYKRITVKVNAPYNKINQRILVVDPVTSEHELTCQAEGYPKAEVIWTSSDHQVLSGKTTTTNSKREEKLFNVTSTLRINTTTNEIFYCTFRRLDPEENHTAELVIPEL
B10: high affinity PDL-1 molecule L2G10 (ligand)
chain: FTVTVPKDLYVVEYGSNMTIECKFPVEKQLDLAALQVHWFMEDKNIYSFVHGEEDLKVQHSSYRQRARLLKDQLSLGNAALQITDVKLQDAGVYRCMISYGGADYKRITVKVNAPYNKINQRILVVDPVTSEHELTCQAEGYPKAEVIWTSSDHQVLSGKTTTTNSKREEKLFNVTSTLRINTTTNEIFYCTFRRLDPEENHTAELVIPEL
B11: high affinity PDL-1 molecule L2F4 (ligand)
chain: FTVTVPKDLYVVEYGSNMTIECKFPVEKQLDLAALEVHWFMEDKNIFSFVHGEEDLKVQHSSYRQRARLLKDQLSLGNAALQITDVKLQDAGVYRCMISYGGADYKRITVKVNAPYNKINQRILVVDPVTSEHELTCQAEGYPKAEVIWTSSDHQVLSGKTTTTNSKREEKLFNVTSTLRINTTTNEIFYCTFRRLDPEENHTAELVIPEL
B12: high affinity PDL-1 molecule L3B3a (ligand)
chain: FTVTVPKDLYVVEYGSNMTIECKFPVEKQLDLAALQVFWMMEDKNIVSFVHGEEDLKVQHSSYRQRARLLKDQLSLGNAALQITDVKLQDAGVYTCLIAYKGADYKRITVKVNAPYNKINQRILVVDPVTSEHELTCQAEGYPKAEVIWTSSDHQVLSGKTTTTNSKREEKLFNVTSTLRINTTTNEIFYCTFRRLDPEENHTAELVIPEL
B13: high affinity PDL-1 molecule L2H3 (ligand)
chain: FTVTVPKDLYVVEYGSNMTIECKFPVEKQLDLAALQVHWFMEDKNILSFVHGEEDLKVQHSSYRQRARLLKDQLSLGNAALQITDVKLQDAGVYRCMISYGGADYKRITVKVNAPYNKINQRILVVDPVTSEHELTCQAEGYPKAEVIWTSSDHQVLSGKTTTTNSKREEKLFNVTSTLRINTTTNEIFYCTFRRLDPEENHTAELVIPEL
B14: high affinity PDL-1 molecule L2B8 (ligand)
chain: FTVTVPKDLYVVEYGSNMTIECKFPVEKQLDLAALQVHWFMEDKNIVSFVHGEEDLKVQHSSYRQRARLLKDQLSLGNAALQITDVKLQDAGVYRCMISYGGADYKRITVKVNAPYNKINQRILVVDPVTSEHELTCQAEGYPKAEVIWTSSDHQVLSGKTTTTNSKREEKLFNVTSTLRINTTTNEIFYCTFRRLDPEENHTAELVIPEL
B15: high affinity PDL-1 molecule L2F5 (ligand)
chain: FTVTVPKDLYVVEYGSNMTIECKFPVEKQLDLAALEVHWFMEDKNISSFVHGEEDLKVQHSSYRQRARLLKDQLSLGNAALQITDVKLQDAGVYRCMISYGGADYKRITVKVNAPYNKINQRILVVDPVTSEHELTCQAEGYPKAEVIWTSSDHQVLSGKTTTTNSKREEKLFNVTSTLRINTTTNEIFYCTFRRLDPEENHTAELVIPEL
B16: high affinity PDL-1 molecule L1F2 (ligand)
chain: FTVTVPKDLYVVEYGSNMTIECKFPVEKQLDLAALQVNWLMEDKNIIQFVHGEEDLKVQHSSYRQRARLLKDQLSLGNAALQITDVKLQDAGVYLCLISYGGADYKRITVKVNAPYNKINQRILVVDPVTSEHELTCQAEGYPKAEVIWTSSDHQVLSGKTTTTNSKREEKLFNVTSTLRINTTTNEIFYCTFRRLDPEENHTAELVIPEL
B17: high affinity PDL-1 molecule L3B3C (ligand)
chain: WTVTVPKDLYVVEYGSNMTIECKFPVEKQLDLAALQVFWMMEDKNIVSFVHGEEDLKVQHSSYRQRARLLKDQLSLGNAALQITDVKLQDAGVYVCLIAYKGADYKRITVKVNAPYNKINQRILVVDPVTSEHELTCQAEGYPKAEVIWTSSDHQVLSGKTTTTNSKREEKLFNVTSTLRINTTTNEIFYCTFRRLDPEENHTAELVIPEL
B18: high affinity PDL-1 molecule L2B6 (ligand)
chain: FTVTVPKDLYVVEYGSNMTIECKFPVEKQLDLAALEVHWFMEDKNIVSFVHGEEDLKVQHSSYRQRARLLKDQLSLGNAALQITDVKLQDAGVYRCMISYGGADYKRITVKVNAPYNKINQRIRVVDPVTSEHELTCQAEGYPKAEVIWTSSDHQVLSGKTTTTNSKREEKLFNVTSTLRINTTTNEIFYCTFRRLDPEENHTAELVIPEL

What is called Kd is the free concentration of one partner at which half of the binding sites on the other are occupied at equilibrium, for simple one-to-one binding. A lower Kd goes with a tighter complex. The term koff denotes a measure of how fast the partners let go of each other. The kon is the second-order rate constant of association. High values mean faster complex formation, low ones slower complex formation.

T1 sequence (Q15116 33-150 limits assumed): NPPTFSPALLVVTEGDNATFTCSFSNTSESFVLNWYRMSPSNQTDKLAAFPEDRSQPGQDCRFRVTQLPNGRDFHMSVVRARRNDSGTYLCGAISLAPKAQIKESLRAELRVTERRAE

This assay concerns the target T1, PD-1 molecule (refolded, purified and biotinylated PD-1 of Example 2) (UniProt Q15116 33-150, biotinylated with BirA enzyme (site not stated)).
T1 construct: also called Programmed Death-1
Nature of the assay: SPR (BIAcore T200), single-cycle kinetics; biotinylated PD-1 captured via streptavidin, PDL-1 variant in solution. The protocol: The anti-streptavidin antibody (GenScript) was added to the coupling buffer (10 mM sodium acetate buffer, pH 4.77). The antibody was then flowed through a CMS chip previously activated with EDC and NHS to immobilize the antibody on the chip surface. Finally, the unreacted activation surface was blocked with a solution of ethanolamine hydrochloride to complete the coupling process.
A low concentration of streptavidin is allowed to flow over the surface of the antibody-coated chip, then the biotinylated PD-1 is passed through the detection channel and the other channel is used as a reference channel. Then, 0.05 mM biotin was passed through the chip at a flow rate of 10 μL/min for 2 min to block the remaining binding sites of streptavidin. The single-cycle kinetic analysis method was used to measure its affinity. […] The binding time for each injection was 120 s, and it was disassociated for 600 s after the last injection. The chips were regenerated with 10 mMGly-HCl, pH 1.75 after each round of assays. Kinetic parameters were calculated using BIAcore Evaluation software.
In the case of B1, the dissociation constant Kd amounted to 0.914 µM, the dissociation rate constant (koff) was 0.0439 s⁻¹ and the kon amounted to 48000 M⁻¹ s⁻¹.

As to B2, binding was characterised by a dissociation constant (Kd) of 0.666 µM, the koff is 0.0573 s⁻¹ and the kon is 86000 M⁻¹ s⁻¹.

Consider B3, for which the dissociation constant Kd came to 0.75 µM, the koff is 0.0329 s⁻¹ and the association rate constant (kon) is 43900 M⁻¹ s⁻¹.

B4: the dissociation constant (Kd) came to 0.964 µM, the off-rate constant (koff) worked out at 0.0526 s⁻¹ and the kon came to 54500 M⁻¹ s⁻¹.

In turn, B5 showed a Kd of 0.499 µM, a koff of 0.071 s⁻¹ and an association rate constant (kon) of 142000 M⁻¹ s⁻¹.

B6 gave a Kd of 11.2 µM, a koff of 0.124 s⁻¹ and a kon of 11000 M⁻¹ s⁻¹.

In the case of B7, the Kd amounted to 4.74 µM, the off-rate constant (koff) is 0.0458 s⁻¹ and the on-rate constant (kon) was 9670 M⁻¹ s⁻¹.

B8 displayed a Kd of 0.751 µM, an off-rate constant (koff) of 0.0376 s⁻¹ and a kon of 50100 M⁻¹ s⁻¹.

For the molecule B9, the Kd came out at 10.9 µM, the koff is 0.123 s⁻¹ and the kon came out at 11300 M⁻¹ s⁻¹.

In turn, B10 displayed a dissociation constant Kd of 4.6 µM, a dissociation rate constant (koff) of 0.178 s⁻¹ and a kon of 38700 M⁻¹ s⁻¹.

Molecule B11 came in with an equilibrium dissociation constant (Kd) of 7.54 µM, an off-rate constant (koff) of 0.154 s⁻¹ and a kon of 20500 M⁻¹ s⁻¹.

For the molecule B12, the Kd was determined as 0.557 µM, the koff was 0.09 s⁻¹ and the on-rate constant (kon) came to 162000 M⁻¹ s⁻¹.

The molecule B13 gave a dissociation constant Kd of 8.97 µM, a koff of 0.153 s⁻¹ and a kon of 17100 M⁻¹ s⁻¹.

With B14, the Kd was determined as 11.7 µM, the koff was found to be 0.15 s⁻¹ and the on-rate constant (kon) was 12800 M⁻¹ s⁻¹.

Molecule B15 had a dissociation constant Kd of 10.1 µM, a koff of 0.122 s⁻¹ and a kon of 12200 M⁻¹ s⁻¹.

Take B16: the Kd was determined as 3.44 µM, the off-rate (koff) stood at 0.104 s⁻¹ and the association rate constant (kon) stood at 30200 M⁻¹ s⁻¹.

The molecule B17 yielded an equilibrium dissociation constant (Kd) of 0.648 µM, a koff of 0.044 s⁻¹ and a kon of 67800 M⁻¹ s⁻¹.

In turn, B18 showed a dissociation constant Kd of 10.3 µM, a koff of 0.134 s⁻¹ and a kon of 13000 M⁻¹ s⁻¹.
